The record followed here is US20220356221A1 (ASKGENE PHARMA, published 2022).

The experiment addresses human IL-12 receptor on HEK-Blue IL-12 reporter cells (human, UniProt P42701 24-662; Q99665 24-862). Put plainly: cell-based or functional assay.

Chain of human IL-12 receptor on HEK-Blue IL-12 reporter cells (Q99665 24-862, chain 2 of 2, other chains not shown): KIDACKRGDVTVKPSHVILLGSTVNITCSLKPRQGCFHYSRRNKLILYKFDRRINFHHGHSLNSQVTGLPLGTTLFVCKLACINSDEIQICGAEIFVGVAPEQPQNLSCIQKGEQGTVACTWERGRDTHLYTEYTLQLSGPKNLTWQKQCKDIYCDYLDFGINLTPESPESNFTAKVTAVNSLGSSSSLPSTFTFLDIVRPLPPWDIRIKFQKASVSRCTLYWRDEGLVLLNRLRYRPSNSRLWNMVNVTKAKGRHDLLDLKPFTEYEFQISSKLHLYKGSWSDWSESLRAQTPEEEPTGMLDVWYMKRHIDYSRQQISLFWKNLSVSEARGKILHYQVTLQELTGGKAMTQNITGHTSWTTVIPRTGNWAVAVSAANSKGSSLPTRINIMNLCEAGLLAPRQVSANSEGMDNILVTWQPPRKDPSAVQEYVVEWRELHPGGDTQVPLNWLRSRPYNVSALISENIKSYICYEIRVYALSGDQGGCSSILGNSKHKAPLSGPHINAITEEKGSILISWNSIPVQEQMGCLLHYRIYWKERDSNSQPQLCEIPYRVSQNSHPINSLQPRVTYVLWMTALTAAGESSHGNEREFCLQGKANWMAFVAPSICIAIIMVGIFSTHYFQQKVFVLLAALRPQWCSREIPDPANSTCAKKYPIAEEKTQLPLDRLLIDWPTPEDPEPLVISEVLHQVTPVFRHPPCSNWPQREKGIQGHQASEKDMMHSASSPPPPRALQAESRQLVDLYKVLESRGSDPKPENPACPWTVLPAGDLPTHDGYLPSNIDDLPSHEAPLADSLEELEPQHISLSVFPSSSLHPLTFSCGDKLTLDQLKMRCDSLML

B1: IL-12 prodrug JR3.105.5 after protease treatment (activated) (Fc fusion)
chain: DKTHTCPPCPAPELLGGPSVFLFPPKPKDTLMISRTPEVTCVVVDVSHEDPEVKFNWYVDGVEVHNAKTKPREEQYASTYRVVSVLTVLHQDWLNGKEYKCKVSNKALPAPIEKTISKAKGQPREPQVYTLPPCRDELTKNQVSLWCLVKGFYPSDIAVEWESNGQPENNYKTTPPVLDSDGSFFLYSKLTVDKSRWQQGNVFSCSVMHEALHNHYTQKSLSLSPGAGGGGSGGGGSGGGGSIWELKKDVYVVELDWYPDAPGEMVVLTCDTPEEDGITWTLDQSSEVLGSGKTLTIQVKEFGDAGQYTCHKGGEVLSHSLLLLHKKEDGIWSTDILKDQKEPKNKTFLRCEAKNYSGRFTCWWLTTISTDLTFSVKSSRGSSDPQGVTCGAATLSAERVRGDNKEYEYSVECQEDSACPAAEESLPIEVMVDAVHKLKYENYTSSFFIRDIIKPDPPKNLQLKPLKNSRQVEVSWEYPDTWSTPHSYFSLTFCVQVQGKSKREKKDRVFTDKTSATVICRKNASISVRAQDRYYSSSWSEWASVPCSGGGGSGGGGSGGGGSRNLPVATPDPGMFPCLHHSQNLLRAVSNMLQKARQTLEFYPCTSEEIDHEDITKDKTSTVEACLPLELTKNESCLNSRETSFITNGSCLASRKTSFMMALCLSSIYEDLKMYQVEFKTMNAKLLMDPKRQIFLDQNMLAVIDELMQALNFNSETVPQKSSLEEPDFYKTKIKLCILLHAFRIRAVTIDRVMSYLNAS
With B1, the “EC50 in the cell-based IL-12 reporter assay (HEK-Blue IL-12, STAT4-inducible SEAP, OD630)” value was ~0.05 nM and the “fold activation based on the EC50 values (after protease treatment against prior to it)” value is ~18 fold.
